Data: patent publication US8597922B2, “Methods and compositions for producing olefins” (LS9, Inc., priority 2007, dated 2013)

How the values were obtained:
Format in all cases: cell-based
E. coli MG1655 ΔfadD = experiment: α-Olefins from glucose by expression of orf880 in E. coli MG1655 ΔfadD; details: glucose (1%, w/v) only carbon source, versus vector-only control
Experimental: The genomic DNA encoding ATCC 8456_orf880, which was codon-optimized for expression in E. coli (SEQ ID NO:4), was cloned into vector OP80 (pCL1920 derivative) under the control of the Ptrc promoter, and E. coli MG1655 ΔfadD was transformed with the resulting vector. The E. coli cells were grown at 37° C. in M9 mineral medium supplemented with 20 μg/mL uracil and 100 μg/mL spectinomycin. Glucose (1%, w/v) was the only source of carbon and energy. When the culture reached an OD600 of 0.8 to 1.0, IPTG (1 mM) and 0.5 mM delta-aminolaevulinic acid (heme biosynthesis precursor) were added. The temperature was shifted to 25° C. After growth for an additional 18 to 24 h at 25° C., the cells from 10 mL of culture were pelleted, resuspended in 1 mL methanol, sonicated for 30 min, and extracted with 4 mL hexane. After solvent evaporation, the samples were resuspended in 0.1 mL hexane and analyzed by GC-MS.

[1] = system: S. cerevisiae (BY4741) yeast cells; experiment: α-Olefin production in Saccharomyces cerevisiae by heterologous expression of orf880; details: expressed in S. cerevisiae
Experimental: Genomic DNA encoding Jeotgalicoccus sp. ATCC 8456_orf880 is cloned into the ApaI and XhoI sites of the yeast expression vector pESC-His. S. cerevisiae (BY4741) yeast cells are then transformed with either a plasmid containing orf880 or a plasmid not containing orf880. The transformed yeast cells are cultured under suitable conditions to allow expression of ORF880. The cells are pelleted and then lysed using YeastBuster™ (Novagen, Madison, Wis.). The α-olefins are extracted and analyzed as described in Examples 6 and 7.

E. coli = experiment: Heterologous expression of 8456_orf880 in E. coli with fatty acid feeding
Experimental: ATCC 8456 cells were grown in 15 mL TSBYE medium (3% Tryptic Soy Broth+0.5% Yeast Extract). Fatty acids were added to the culture medium at final concentrations of 0.5 g/l (0.05%). After growth for 40-48 h at 30° C., cells from 5 mL of culture were pelleted, resuspended in 1 mL methanol, sonicated for 30 min, and extracted with 4 mL hexane. After solvent evaporation, samples were resuspended in 0.1 mL hexane and analyzed by GC-MS.
Jeotgalicoccus ATCC 8456 ORF880 was identified as one of the two major proteins in a highly purified enzyme fraction that catalyzed the conversion of free fatty acids to α-olefins. The genomic DNA encoding ATCC 8456_orf880 was cloned into pCDF-Duet1 under the control of the T7 promoter, and E. coli was transformed with various vectors, as described below. The E. coli cells were grown, and the hydrocarbons produced by the cells were analyzed as described in Example 2. When 0.05% stearic acid was fed to cultures of E. coli transformed with the 8456_orf880-containing vector, the expression of 8456_orf880 led to the formation of 1-heptadecene in E. coli (see FIG. 8, depicting GC/MS traces of α-olefins from E. coli either without (black) or with (gray) expression of 8456_orf880). […] Additionally, when E. coli cells expressing 8456_orf880 protein were fed with 0.05% palmitic acid or 0.05% eicosanoic acid, the production of 1-pentadecene or 1-nonadecene, respectively, was observed.

B1: ORF880: olefin-producing enzyme (fatty acid decarboxylase) from Jeotgalicoccus sp. ATCC 8456, SEQ ID NO:2 (protein)
chain: MATLKRDKGLDNTLKVLKQGYLYTTNQRNRLNTSVFQTKALGGKPFVVVTGKEGAEMFYNNDVVQREGMLPKRIVNTLFGKGAIHTVDGKKHVDRKALFMSLMTEGNLNYVRELTRTLWHANTQRMESMDEVNIYRESIVLLTKVGTRWAGVQAPPEDIERIATDMDIMIDSFRALGGAFKGYKASKEARRRVEDWLEEQIIETRKGNIHPPEGTALYEFAHWEDYLGNPMDSRTCAIDLMNTFRPLIAINRFVSFGLHAMNENPITREKIKSEPDYAYKFAQEVRRYYPFVPFLPGKAKVDIDFQGVTIPAGVGLALDVYGTTHDESLWDDPNEFRPERFETWDGSPFDLIPQGGGDYWTNHRCAGEWITVIIMEETMKYFAEKITYDVPEQDLEVDLNSIPGYVKSGFVIKNVREVVDRT
modifications: Jeotgalicoccus sp. ATCC8456
Which α-olefins produced (E. coli MG1655 ΔfadD) does the source give for B1 here?
The α-olefins produced was 1-pentadecene and heptadecadiene.

What about the α-olefin production [1] of the same molecule?
Its α-olefin production is “produces α-olefins”.

What about the α-olefin produced (E. coli; 0.05% eicosanoic acid fed) of the same molecule?
The α-olefin produced was 1-nonadecene.

And the α-olefin produced (E. coli; 0.05% palmitic acid fed)?
The α-olefin produced was 1-pentadecene.

And the α-olefin produced (E. coli; 0.05% stearic acid fed)?
The α-olefin produced was 1-heptadecene.
